The target in this assay is areca nut (AN) peroxidase (Areca catechu L.). Description: native gel or EMSA; native gel without heating or reducing agent; zymogram (20 mM guaiacol, 5 mM H2O2) and Coomassie staining; enzyme desalted with HEPES buffer (20 mM, pH 7.9); dimer to monomers.

Consider areca nut (AN) peroxidase (enzyme), for which the stoichiometry N was 2.
